Laboratory results published in article PMC9789324 (Food Chemistry: Molecular Sciences, 2022).
Each block holds one molecule with its values, some of them ahead of it.

Tests used:
Test in all cases: crystal structure
[1] = biological target: Len c 1, lentil vicilin (7S globulin) core region (Lens culinaris Medicus (lentil))
[2] = biological target: Pis s 1, pea vicilin (7S globulin) core region (Pisum sativum L. (pea))
[3] = biological target: the molecule itself

stoichiometry N [1]: 3
Molecule: Len c 1, lentil vicilin (7S globulin) core region (domain or fragment)

stoichiometry N [2]: 3
Molecule: Pis s 1, pea vicilin (7S globulin) core region (domain or fragment)

B1: Pis s 2, pea convicilin (7S globulin) core region (domain or fragment, Pisum sativum L. (pea))
chain: SQERRNPFLFKSNKFLTLFENENGHIRLLQRFDKRSDLFENLQNYRLVEYRAKPHTIFLPQHIDADLILVVLSGKAILTVLSPNDRNSYNLERGDTIKLPAGTTSYLVNQDDEEDLRLVDLVIPVNGPGKFEAFDLAKNKNQYLRGFSKNILEASYNTRYETIEKVLLEEQEKDRKRRQQGEETDAIVKVSREQIEELKKLAKSSSKKSLPSEFEPINLRSHKPEYSNKFGKLFEITPEKKYPQLQDLDLFVSCVEINEGALMLPHYNSRAIVVLLVNEGKGNLELLGLKNEQQEREDRKERNNEVQRYEARLSPGDVVIIPAGHPVAITASSNLNLLGFGINAENNERNFLSGSDDNVISQIENPVKELTFPGSVQEINRLIKNQKQSHFANA
stoichiometry N [3]: 3
